Source: paper PMC7589778

Target: Human mitochondrial LysRS with a C-terminal HA-tag (human) (UniProt Q15046)
Assay: AlphaScreen or HTRF

Substance | Kd
Integrase from HIV-2_ALL with a C-terminal His-tag (enzyme) | 2.4 nM
Integrase from HIV-2_TRA with a C-terminal His-tag (enzyme) | 3.5 nM
